Paper PMC4301630, “Dynamic Growth and Shrinkage Govern the pH Dependence of RecA Filament Stability” (PLoS ONE, 2015)

Biological target: the molecule itself
Assay: single-molecule FRET (Cy3 and Cy5 on the DNA, TIRF microscopy); partial duplex DNA with a 60 nt 3' single-stranded overhang immobilised on a PEG-coated quartz slide; dyes 10 nt apart at the 5' side of the overhang report monomers joining and leaving the 5' end of the RecA filament; 1 uM RecA (0.5 uM RecAΔC17), 1 mM ATP, 10 mM Mg(OAc)2, 100 mM NaOAc, 10 mM Tris-OAc, Mes or Mops, pH 6.0 to 8.0, room temperature; …

B1: RecA protein (wild type) (natural protein, UniProt P0A7G6 1-353, looked up)
chain: MAIDENKQKALAAALGQIEKQFGKGSIMRLGEDRSMDVETISTGSLSLDIALGAGGLPMGRIVEIYGPESSGKTTLTLQVIAAAQREGKTCAFIDAEHALDPIYARKLGVDIDNLLCSQPDTGEQALEICDALARSGAVDVIVVDSVAALTPKAEIEGEIGDSHMGLAARMMSQAMRKLAGNLKQSNTLLIFINQIRMKIGVMFGNPETTTGGNALKFYASVRLDIRRIGAVKEGENVVGSETRVKVVKNKIAAPFKQAEFQILYGEGINFYGELVDLGVKEKLIEKAGAWYSYKGEKIGQGKANATAWLKDNPETAKEIEKKVRELLLSNPNSTPDFSVDDSEGVAETNEDF
notes: RecA protein, wild type, bought from New England Biolabs; Forms helical filaments of many monomers on single-stranded DNA with ATP or ATPγS; the number of copies in the filament is not fixed; also called wild type RecA; source: bought: New England Biolabs, used without further purification
B1: binds.
